Results taken from patent publication US20240327534A1 (HARPOON THERAPEUTICS, published 2024).
Numbering of substitutions follows the chain as printed.

B1: BCMA targeting trispecific protein 01E05 (other)
VHH: EVQLVESGGGLVQPGRSLTLSCAASTNIFSRSPMGWYRQAPGKQRELVAAIHGTSTLYADSVKGRFTISRDNAKNSIYLQMNSLRPEDTALYYCNKVPWGKYHPRNVYWGQGTQVTVSS
notes: trispecific; not shown: the C-terminal 6xHis tag follows those missing domains and is left out
B2: BCMA targeting trispecific protein 02G01 (other)
VHH: B1 VHH with R31I, S32N, T54F, S55D, K101D, Y108S
notes: as for B1
B3: BCMA targeting trispecific protein 01E08 (other, not shown: large carriers; small tags and cut ends)
VHH: B1 VHH with R31Q, T54D, K101D, R105G, Y108C
notes: trispecific
B4: BCMA targeting trispecific protein 02B07 (other)
VHH: B1 VHH with R31S, T54H, K101D, Y108T
notes: trispecific; not shown: anti-albumin domain, anti-CD3 domain and the linkers of the trispecific (TriTAC) format
B5: BCMA targeting trispecific protein 02F03 (other, not shown: large carriers; small tags and cut ends)
VHH: B1 VHH with R31I, S32Y, T54S, K101D, R105K
notes: trispecific
B6: BCMA targeting trispecific protein 02B12 (other, not shown: large carriers; small tags and cut ends)
VHH: B1 VHH with F29S, R31I, T54F, S55D, K101D
notes: trispecific
B7: BCMA targeting trispecific protein 01H04 (other)
VHH: B1 VHH with R31K, T54Q, K101D, Y108T
notes: as for B4
B8: BCMA targeting trispecific protein 01G04 (other, not shown: large carriers; small tags and cut ends)
VHH: B1 VHH with F29D, R31I, T54N, K101D, N106M
notes: trispecific
B9: BCMA targeting trispecific protein 01F10 (other)
VHH: B1 VHH with T26S, R31I, T54E, K101D, Y108T
notes: as for B1
B10: BCMA targeting trispecific protein 02D06 (other, not shown: large carriers; small tags and cut ends)
VHH: B1 VHH with F29S, R31I, T54F, L57V, K101R
notes: trispecific
B11: BCMA targeting trispecific protein 02D11 (other)
VHH: B1 VHH with I28E, R31I, T54E, K101D, R105G
notes: trispecific; not shown: the C-terminal His6 follows those missing domains and is left out
B12: BCMA targeting trispecific protein 02C06 (other, not shown: large carriers; small tags and cut ends)
VHH: B1 VHH with R31T, K101D, R105G
notes: trispecific
B13: BCMA targeting trispecific protein 01G10 (other, not shown: large carriers; small tags and cut ends)
VHH: B1 VHH with I28E, R31I, T54L, K101A
notes: trispecific
B14: BCMA targeting trispecific protein 01F09 (other)
VHH: B1 VHH with F29S, R31I, T54H, K101R
notes: trispecific; not shown: anti-albumin domain, anti-CD3 domain and the linkers of the trispecific; the C-terminal His6 that follows them is left out
B15: BCMA targeting trispecific protein 01E06 (other, not shown: large carriers; small tags and cut ends)
VHH: B1 VHH with R31L, T54D, K101D
notes: trispecific
B16: BCMA targeting trispecific protein 01F02 (other)
VHH: B1 VHH with R31H, K101R
notes: as for B14
B17: BCMA targeting trispecific protein 01F04 (other)
VHH: B1 VHH with F29D, R31I, T54F, S55Q, K101D, R105G
notes: as for B11
B18: BCMA targeting trispecific protein 02A07 (other, not shown: large carriers; small tags and cut ends)
VHH: B1 VHH with R31K, T54N, K101D, N106E
notes: trispecific
B19: BCMA targeting trispecific protein 02C01 (other)
VHH: B1 VHH with F29I, R31I, T54A, K101D, R105G
notes: as for B14
B20: BCMA targeting trispecific protein 02C03 (other)
VHH: B1 VHH with F29A, R31I, T54S, K101D, R105G
notes: as for B11
B21: BCMA targeting trispecific protein 01E10 (other)
VHH: B1 VHH with F29E, R31I, T54K, K101D, N106R
notes: trispecific; not shown: the C-terminal 6xHis tag follows those domains and is left out
B22: BCMA targeting trispecific protein 02A08 (other, not shown: large carriers; small tags and cut ends)
VHH: B1 VHH with T54E, K101R, R105G
notes: trispecific
B23: BCMA targeting trispecific protein 02F12 (other, not shown: large carriers; small tags and cut ends)
VHH: B1 VHH with F29E, R31I, K101D, R105G
notes: trispecific
B24: BCMA targeting trispecific protein 01H09 (other)
VHH: B1 VHH with F29M, R31I, T54N, K101D, R105G
notes: as for B11
B25: BCMA targeting trispecific protein 02F11 (other)
VHH: B1 VHH with R31T, K101D, Y108Q
notes: as for B4
B26: BCMA targeting trispecific protein 02A04 (other)
VHH: B1 VHH with R31Q, T54K, K101D, R105S, Q111K
notes: trispecific; not shown: The C-terminal 6xHis tag is left out because it follows these missing domains
B27: BCMA targeting trispecific protein 01F08 (other)
VHH: B1 VHH with F29T, R31V, T54P, K101D, R105T
notes: as for B21
B28: BCMA targeting trispecific protein 01E07 (other)
VHH: B1 VHH with F29P, R31I, T54Q, K101D, Y108Q
notes: trispecific; not shown: anti-albumin domain, anti-CD3 domain and the linkers of the trispecific (TriTAC) chain; the C-terminal 6xHis tag follows these missing domains and is left out
B29: BCMA targeting trispecific protein 01F12 (other)
VHH: B1 VHH with S30R, R31I, T54D, K101R
notes: as for B14
B30: BCMA targeting trispecific protein 01F05 (other)
VHH: B1 VHH with R31S, T54F, L57W, K101R
notes: as for B26
B31: BCMA targeting trispecific protein 01G01 (other)
VHH: B1 VHH with F29V, R31I, T54D, K101D, N106R
notes: as for B1
B32: BCMA targeting trispecific protein 02F07 (other)
VHH: B1 VHH with F29E, R31I, T54F, K101D, R105G
notes: as for B11
B33: BCMA targeting trispecific protein 01H10 (other)
VHH: B1 VHH with F29P, R31I, T54E, K101D
notes: as for B26
B34: BCMA targeting trispecific protein 01H01 (other, not shown: large carriers; small tags and cut ends)
VHH: B1 VHH with F29G, R31I, T54Q, K101D, R105Q
notes: trispecific
B35: BCMA targeting trispecific protein 01F03 (other)
VHH: B1 VHH with R31E, T54N, K101T
notes: as for B21
B36: BCMA targeting trispecific protein 02A11 (other)
VHH: B1 VHH with I28H, R31I, T54S, K101D, N106V
notes: trispecific; also called 02All; not shown: the C-terminal 6xHis tag follows those domains and is left out
B37: BCMA targeting trispecific protein 02A05 (other, not shown: large carriers; small tags and cut ends)
VHH: B1 VHH with F29A, R31I, T54K, K101D, R105G
notes: trispecific
B38: BCMA targeting trispecific protein 02F06 (other, not shown: large carriers; small tags and cut ends)
VHH: B1 VHH with R31I, S32T, T54E, K101R
notes: trispecific
B39: BCMA targeting trispecific protein 01G06 (other, not shown: large carriers; small tags and cut ends)
VHH: B1 VHH with T54F, S55E, K101D, Y108L
notes: trispecific
B40: BCMA targeting trispecific protein 01H05 (other, not shown: large carriers; small tags and cut ends)
VHH: B1 VHH with R31I, S32T, K101R
notes: trispecific
B41: BCMA targeting trispecific protein 02C05 (other)
VHH: B1 VHH with R31E, T54F, S55T, K101D, Y108T
notes: as for B28
B42: BCMA targeting trispecific protein 02B04 (other)
VHH: B1 VHH with R31T, T54F, L57I, K101D, R105L
notes: as for B1
B43: BCMA targeting trispecific protein 01H11 (other, not shown: large carriers; small tags and cut ends)
VHH: B1 VHH with A23V, R31T, T54F, K101D, R105G
notes: trispecific
B44: BCMA targeting trispecific protein 02B11 (other)
VHH: B1 VHH with F29V, R31I, T54D, K101D, Y108S
notes: as for B4
B45: BCMA targeting trispecific protein 02B01 (other, not shown: large carriers; small tags and cut ends)
VHH: B1 VHH with R31N, T54R, K101D, Y108M
notes: trispecific
B46: BCMA targeting trispecific protein 02E03 (other)
VHH: B1 VHH with R31N, T54P, K101D, Y108T
notes: as for B28
B47: BCMA targeting trispecific protein 01G09 (other)
VHH: B1 VHH with S30N, R31I, T54F, L57Y, K101R
notes: as for B14
B48: BCMA targeting trispecific protein 01G11 (other, not shown: large carriers; small tags and cut ends)
VHH: B1 VHH with F29P, R31I, T54A, K101D, Y108A
notes: trispecific
B49: BCMA targeting trispecific protein 02E09 (other, not shown: large carriers; small tags and cut ends)
VHH: B1 VHH with I28D, R31I, T54G, K101D, Y108A
notes: trispecific
B50: BCMA targeting trispecific protein 02F05 (other, not shown: large carriers; small tags and cut ends)
VHH: B1 VHH with R31V, T54N
notes: trispecific

Biological target: T1, human BCMA on BCMA expressing cell lines (human, UniProt Q02223 1-184)
T1 sequence: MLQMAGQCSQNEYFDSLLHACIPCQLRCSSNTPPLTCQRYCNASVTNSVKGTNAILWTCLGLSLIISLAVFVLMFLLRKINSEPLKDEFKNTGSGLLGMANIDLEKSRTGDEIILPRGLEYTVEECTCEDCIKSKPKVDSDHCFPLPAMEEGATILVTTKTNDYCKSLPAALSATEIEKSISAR
Experiment: cell-based or functional assay

| TDCC EC50 (EJM cells) [pM] | Binder |
| --- | --- |
| 10.8 | B1 |
| 10.8 | B2 |
| 1.5 | B3 |
| 14.2 | B4 |
| 24.5 | B5 |
| 124 | B6 |
| 14.7 | B7 |
| 24.1 | B8 |
| 7.44 | B9 |
| 42.8 | B10 |
| 2.35 | B11 |
| 1.95 | B12 |
| 143 | B13 |
| 945 | B14 |
| 3.77 | B15 |
| 225 | B16 |
| 2.21 | B17 |
| 27.9 | B18 |
| 1.55 | B19 |
| 2.52 | B20 |
| 62.3 | B21 |
| 20.1 | B22 |
| 3.14 | B23 |
| 2.21 | B24 |
| 15.2 | B25 |

| TDCC EC50 (EJM cells) [pM] | Binder |
| --- | --- |
| 38.2 | B26 |
| 71.2 | B27 |
| 19.2 | B28 |
| 392 | B29 |
| 37.2 | B30 |
| 5.83 | B31 |
| 2.59 | B32 |
| 35.2 | B33 |
| 118 | B34 |
| 76.4 | B35 |
| 60.6 | B36 |
| 4.21 | B37 |
| 19.3 | B38 |
| 19.2 | B39 |
| 45.4 | B40 |
| 16.2 | B41 |
| 11.3 | B42 |
| 3.17 | B43 |
| 14.4 | B44 |
| 51.8 | B45 |
| 16.5 | B46 |
| 441 | B47 |
| 3.98 | B48 |
| 31.1 | B49 |
| 3 | B50 |

Biological target: T2, human BCMA protein (human, UniProt Q02223 1-54, limits assumed)
T2 sequence: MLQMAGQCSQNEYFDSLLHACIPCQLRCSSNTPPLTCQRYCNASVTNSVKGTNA
Experiment: affinity to human BCMA protein, method not stated

| Kd [nM] | Binder |
| --- | --- |
| 11.7 | B1 |
| 16.3 | B2 |
| 5.56 | B3 |
| 15.8 | B4 |
| 25.7 | B5 |
| 25.2 | B6 |
| 17.4 | B7 |
| 11.7 | B8 |
| 14.4 | B9 |
| 23.3 | B10 |
| 6.71 | B11 |
| 6.9 | B12 |
| 41.9 | B13 |
| 52.8 | B14 |
| 8.91 | B15 |
| 41.3 | B16 |
| 6.55 | B17 |
| 18.4 | B18 |
| 5.31 | B19 |
| 7.09 | B20 |
| 18.5 | B21 |
| 9.51 | B22 |
| 7.76 | B23 |
| 5.44 | B24 |
| 20 | B25 |

| Kd [nM] | Binder |
| --- | --- |
| 17.6 | B26 |
| 21.4 | B27 |
| 19.9 | B28 |
| 40.5 | B29 |
| 16.7 | B30 |
| 14.6 | B31 |
| 7.06 | B32 |
| 24.8 | B33 |
| 35.9 | B34 |
| 15 | B35 |
| 25.2 | B36 |
| 7.06 | B37 |
| 21.9 | B38 |
| 17 | B39 |
| 27.4 | B40 |
| 15.6 | B41 |
| 15.2 | B42 |
| 7.06 | B43 |
| 13.3 | B44 |
| 21.4 | B45 |
| 16.8 | B46 |
| 87.8 | B47 |
| 9.7 | B48 |
| 20.9 | B49 |
| 7.15 | B50 |
